Measurements taken from article PMC10952227.

Tests used:
[1] = target: Guanylyl cyclase-A (GC-A), human (human) (UniProt P16066)
[2] = target: Guanylyl cyclase-A (GC-A), human (human) (UniProt P16066); test: radioligand binding; whole GC-A-expressing QBIHEK293A cells; 50 pmol/L 125I-ANP with increasing concentrations of compound #20; DMEM with 1% BSA; 4°C, 1 h

Chain of UniProt P16066 (P16066 33-473): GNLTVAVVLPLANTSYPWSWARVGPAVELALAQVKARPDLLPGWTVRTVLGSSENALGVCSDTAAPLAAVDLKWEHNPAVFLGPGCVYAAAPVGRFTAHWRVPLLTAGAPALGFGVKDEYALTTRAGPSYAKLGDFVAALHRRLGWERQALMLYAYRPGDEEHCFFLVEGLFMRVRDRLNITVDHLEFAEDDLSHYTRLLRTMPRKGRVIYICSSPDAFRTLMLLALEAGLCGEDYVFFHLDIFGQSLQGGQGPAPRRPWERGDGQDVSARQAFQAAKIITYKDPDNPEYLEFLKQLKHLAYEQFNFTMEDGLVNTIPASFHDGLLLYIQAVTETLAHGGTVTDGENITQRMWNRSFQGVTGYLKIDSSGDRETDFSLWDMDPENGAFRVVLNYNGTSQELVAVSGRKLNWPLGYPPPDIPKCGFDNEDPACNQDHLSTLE

cGMP production (AlphaScreen) in GC-A-expressing QBIHEK293A cells, concentration-response of human BNP without compound: EC50 [1] [nM] | increase of binding by increasing concentrations of compound #20 [2] [%] | Substance
1 |  | Brain natriuretic peptide (BNP)
 | 71 | ^125I-ANP (peptide)
